These results are taken from patent US20170101480A1.

The target in the assay is ErbB3 (human) (UniProt P21860). As to the kind of experiment: cell-based or functional assay.

B1: Seribantumab (antibody, INN chains, looked up, V domains shown)
VH: EVQLLESGGGLVQPGGSLRLSCAASGFTFSHYVMAWVRQAPGKGLEWVSSISSSGGWTLYADSVKGRFTISRDNSKNTLYLQMNSLRAEDTAVYYCTRGLKMATIFDYWGQGTLVTVSS
VL: QSALTQPASVSGSPGQSITISCTGTSSDVGSYNVVSWYQQHPGKAPKLIIYEVSQRPSGVSNRFSGSKSGNTASLTISGLQTEDEADYYCCSYAGSSIFVIFGGGTKVTVLG
Consider B1, for which the inhibition of HRG-induced cell growth (CTG assay), OVCAR8-GFP cells was determined as 49%; the inhibition of HRG-induced cell growth (CTG assay), OVCAR-8-JMaCYT1 cells (ErbB4 overexpressing) is below 20%; the inhibition of HRG-induced cell growth (CTG assay), OVCAR-8-JMaCYT2 cells (ErbB4 overexpressing) is below 20%; the inhibition of HRG-induced cell growth (CTG assay), OVCAR-8 high ErbB4 expression clone #5 came out at 8%. In addition, the inhibition of HRG-induced cell growth (CTG assay), OVCAR-8 low ErbB4 expression clone #4 worked out at 45%; the inhibition of HRG-induced cell growth (CTG assay), OVCAR-8 medium ErbB4 expression clone #9 came out at 25%; the inhibition of HRG-induced cell proliferation (CTG assay), OVCAR-8 GFP-expressing control cells, 1.25 uM seribantumab was found to be 40.8%; the inhibition of HRG-induced cell proliferation (CTG assay), OVCAR-8 parental cells, 1.25 uM seribantumab is 53.7%. This molecule registered an inhibition of HRG-stimulated cell proliferation (CTG assay), A549 cells, 1.25 uM seribantumab, 10 nM HRG of 70% and an inhibition of HRG-stimulated cell proliferation (CTG assay), OVCAR-8 cells, 1.25 uM seribantumab, 10 nM HRG of 41%.
